From patent publication US20190389955A1

Biological target: human FLT3/FLK2 receptor protein (human) (UniProt P36888)
Experiment: flow cytometry on SP2/0 cells expressing human FLT3/FLK2; same table: unstained SP2/0 clone 3 6063, secondary Ab 9522

Chain of human FLT3/FLK2 receptor protein (human) (P36888 27-993): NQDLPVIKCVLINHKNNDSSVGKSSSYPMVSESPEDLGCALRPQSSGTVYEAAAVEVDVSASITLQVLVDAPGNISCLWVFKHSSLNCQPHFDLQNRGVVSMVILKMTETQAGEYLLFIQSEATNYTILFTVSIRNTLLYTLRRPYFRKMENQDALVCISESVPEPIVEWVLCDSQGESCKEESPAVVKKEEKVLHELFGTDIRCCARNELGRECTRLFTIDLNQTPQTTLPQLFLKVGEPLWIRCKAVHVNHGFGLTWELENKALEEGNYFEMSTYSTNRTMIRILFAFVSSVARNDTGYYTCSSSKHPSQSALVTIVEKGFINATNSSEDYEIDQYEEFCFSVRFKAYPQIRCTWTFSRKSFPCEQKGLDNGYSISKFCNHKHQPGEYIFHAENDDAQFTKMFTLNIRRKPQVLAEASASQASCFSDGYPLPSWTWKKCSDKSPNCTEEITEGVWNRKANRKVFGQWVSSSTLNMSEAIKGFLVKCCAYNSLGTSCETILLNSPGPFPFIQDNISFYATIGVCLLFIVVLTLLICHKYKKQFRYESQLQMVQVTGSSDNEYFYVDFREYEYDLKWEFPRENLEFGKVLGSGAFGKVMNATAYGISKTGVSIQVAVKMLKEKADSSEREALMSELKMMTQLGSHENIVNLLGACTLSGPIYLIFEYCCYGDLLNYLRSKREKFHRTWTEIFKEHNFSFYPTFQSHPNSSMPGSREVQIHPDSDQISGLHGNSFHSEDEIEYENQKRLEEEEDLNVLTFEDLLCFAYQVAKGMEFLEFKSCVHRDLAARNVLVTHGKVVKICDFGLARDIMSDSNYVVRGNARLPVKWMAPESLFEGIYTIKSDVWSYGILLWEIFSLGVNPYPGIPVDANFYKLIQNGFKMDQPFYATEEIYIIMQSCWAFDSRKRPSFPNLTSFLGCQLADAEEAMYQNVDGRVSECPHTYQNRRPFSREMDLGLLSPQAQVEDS

ISOTYPE CTR (antibody)
MFI: 11500
